# Data published in FireProtDB (doi:10.1021/bi972994k).
# B1: DNA-binding protein 7d wild type, P39476 (protein)
# chain: MATVKFKYKGEEKEVDISKIKKVWRVGKMISFTYDEGGGKTGRGAVSEKDAPKELLQMLEKQKK
# Conditions: Saccharolobus solfataricus (strain ATCC 35092 / DSM 1617 / JCM 11322 / P2), Thermal, DSC, glycine-HCl 10 mM, NaCl 100 mM, reversible: yes, whole UniProt chain shown
protein,measurement,setting,value
B1,Tm,pH 2.3,64 °C
same,heat capacity change of unfolding,pH 2.3,0.48 kcal/mol/K
same,unfolding enthalpy (calorimetric),pH 2.3,170 kJ/mol
same,Tm,pH 2.5,65.5 °C
same,heat capacity change of unfolding,pH 2.5,0.57 kcal/mol/K
same,unfolding enthalpy (calorimetric),pH 2.5,180 kJ/mol
same,Tm,pH 2.7,71.1 °C
same,heat capacity change of unfolding,pH 2.7,0.57 kcal/mol/K
same,unfolding enthalpy (calorimetric),pH 2.7,195 kJ/mol
same,Tm,pH 2.8,74 °C
same,heat capacity change of unfolding,pH 2.8,0.45 kcal/mol/K
same,unfolding enthalpy (calorimetric),pH 2.8,205 kJ/mol
same,Tm,pH 2.9,76.3 °C
same,heat capacity change of unfolding,pH 2.9,0.65 kcal/mol/K
same,unfolding enthalpy (calorimetric),pH 2.9,210 kJ/mol
same,Tm,pH 3,78.8 °C
same,heat capacity change of unfolding,pH 3,0.74 kcal/mol/K
same,unfolding enthalpy (calorimetric),pH 3,215 kJ/mol
same,Tm,pH 3.2,84.2 °C
same,heat capacity change of unfolding,pH 3.2,0.72 kcal/mol/K
same,unfolding enthalpy (calorimetric),pH 3.2,230 kJ/mol
same,Tm,pH 3.6,90.3 °C
same,heat capacity change of unfolding,pH 3.6,0.6 kcal/mol/K
same,unfolding enthalpy (calorimetric),pH 3.6,245 kJ/mol
same,Tm,pH 3.8,92.4 °C
same,heat capacity change of unfolding,pH 3.8,0.69 kcal/mol/K
same,unfolding enthalpy (calorimetric),pH 3.8,250 kJ/mol
same,Tm,pH 4,95.1 °C
same,heat capacity change of unfolding,pH 4,0.55 kcal/mol/K
same,unfolding enthalpy (calorimetric),pH 4,265 kJ/mol
